These results are taken from patent US20250339531A1, “DUX4 POLYPEPTIDES AND NUCLEIC ACIDS FOR TREATING INFLAMMATORY AND AUTOIMMUNE CONDITIONS” (Fred Hutchinson Cancer Center, priority 2021, published 2025).

“Also recorded” adds a separate entry of the source.

The target of one assay is T1, STAT1 (Homo sapiens, UniProt P42224).
T1 construct: co-localization of endogenous STAT1 and pSTAT1 701 with the iDUX4-CTD; endogenous in cells; host or cells: MB135 human myoblasts carrying doxycycline-inducible DUX4 / DUX4-CTD / DUXB / Dux transgenes, with or without IFNG
T1 sequence (P42224 1-750): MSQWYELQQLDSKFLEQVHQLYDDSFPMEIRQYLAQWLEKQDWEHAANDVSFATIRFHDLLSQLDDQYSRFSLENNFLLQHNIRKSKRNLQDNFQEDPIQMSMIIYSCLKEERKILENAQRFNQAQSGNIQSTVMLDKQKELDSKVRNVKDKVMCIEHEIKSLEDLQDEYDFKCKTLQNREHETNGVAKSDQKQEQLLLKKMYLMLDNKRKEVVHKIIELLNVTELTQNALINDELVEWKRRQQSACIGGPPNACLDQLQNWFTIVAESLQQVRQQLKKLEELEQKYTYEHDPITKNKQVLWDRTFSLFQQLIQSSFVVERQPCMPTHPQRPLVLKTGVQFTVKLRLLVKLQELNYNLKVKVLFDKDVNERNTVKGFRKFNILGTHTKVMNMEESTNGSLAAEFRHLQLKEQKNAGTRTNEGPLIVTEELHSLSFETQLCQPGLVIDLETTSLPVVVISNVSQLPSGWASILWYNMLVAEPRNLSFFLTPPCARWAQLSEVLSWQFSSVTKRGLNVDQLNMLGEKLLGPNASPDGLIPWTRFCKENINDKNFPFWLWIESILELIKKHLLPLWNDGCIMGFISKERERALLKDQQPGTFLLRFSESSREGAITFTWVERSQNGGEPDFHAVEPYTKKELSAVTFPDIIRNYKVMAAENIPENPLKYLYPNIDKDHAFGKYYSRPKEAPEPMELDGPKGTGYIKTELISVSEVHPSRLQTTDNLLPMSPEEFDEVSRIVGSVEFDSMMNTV
The assay is described as follows: Immunofluorescence of STAT1 distribution. Particulars: MB135 cells, IFNG ± doxycycline. The format is cell-based. As to the method:
Cells were fixed for 10 minutes with 2% paraformaldehyde (Thermo Scientific) for DUX4/STAT1 and 4% paraformaldehyde for DUX4/IDO1 then permeabilized for 10 minutes with 0.5% Triton X-100 (Sigma), both at room temperature with gentle shaking. Cells were then blocked for 2 hours with PBS/0.3M glycine/3% BSA at room temperature with gentle shaking. Primary antibodies were incubated at 4° C. overnight: mouse anti-FLAG M2 1:500 (Sigma #F1804), rabbit anti-STAT1 mAb 1:750 (Abcam #ab109320), rabbit anti-IDO1 (D5J4E) 1:100 (Cell Signaling Tech 86630S), and mouse anti-DUX4 (P2G4) 1:250 (Geng et al., 2011). Cells were washed three times with 1×PBS containing 3% BSA, then secondary antibodies were incubated for 1 hr at room temperature: FITC-conjugated donkey anti-rabbit (Jackson immunoResearch) or TRITC-conjugated donkey anti-mouse (Jackson ImmunoResearch). Cells were washed once with 1×PBS containing 3% BSA then stained with DAPI (Sigma) for 10′ at room temperature and then visualized.

For a further assay, the system named is Pol-II. The assay is described as follows: CUT&Tag of Pol-II occupancy. Particulars: MB135-iDUX4-CTD cells, IFNG ± doxycycline. Format: cell-based, human. As to the method: CUT&Tag was performed as previously described (Kaya-Okur et al., 2019) with the following modifications: MB135-iDUX4-CTD myoblasts were plated and allowed to grow to 70-80% confluence. Cells were left untreated, treated with 200 ng/ml IFNG for 16 hr, or pre-treated with 1 μg/mL doxycycline for 4 hr then had IFNG added directly to cell media for an additional 16 hr. Fresh cells were harvested and washed in PBS, crosslinked with 0.1% formaldehyde for 90 seconds, then counted and 1.25e6 cells were aliquoted per reaction tube. Drosophila S2 cells were spiked-in at a genomic ratio of 1:10. Nuclei were prepared from cells in Buffer NE1 (20 mM HEPES-KOH PH7.9, 10 mM KCl, 0.1% Triton X-100, 20% glycerol, 0.5 mM spermidine, Pierce Protease Inhibitors EDTA-free [PIA32955]) on ice for 10 min and then bound to concanavalin A-coated beads for 10 min. […]
CUT&Tag data were aligned to the GRCh38 patch 13 human genome e following the Benchtop CUT&Tag v3 protocol (Kaya-Okur et al., 2019). Subsequent to alignment we calculated 1× genome coverage normalization with read centering and read extension using deepTools' bamCoverage (Ramírez, 2016) then mapped the resulting coverage tracks to regions of interest using bedtools' map function (Aaron R. Quinlan, 2010). […]

As for “DUX4: human DUX4 protein SEQ ID NO:3 expressed from doxycycline inducible codon altered transgene SEQ ID NO:2”, the STAT1 nuclear distribution entry with STAT1 was “no longer evenly distributed in the nucleus and shows overall decreased abundance”.
For “longCTD: 3×FLAG tag and nls in frame with carboxyterminal 271 amino acids of DUX4 (aa154-424), SEQ ID NOS: 8-9”, in the assay with Pol-II, the “Pol-II recruitment to ISGs” value is “blocked Pol-II recruitment to ISGs without affecting occupancy at other genes; also recorded: blocks Pol-II recruitment”.
